The results in this text go back to IntAct's records for PubMed 31831856.

The chains are these.
B1: Iron-sulfur cluster assembly factor IBA57, mitochondrial (Homo sapiens), Q5T440 (parent)
chain: MATAALLRGATPGRGGPVWRWRLRAAPRCRLAHSSCSPGGDPTAGAAWACFRLDGRTLLRVRGPDAAPFLLGLLTNELPLPSPAAAGAPPAARAGYAHFLNVQGRTLYDVILYGLQEHSEVSGFLLECDSSVQGALQKHLALYRIRRKVTVEPHPELRVWAVLPSSPEACGAASLQERAGAAAILIRDPRTARMGWRLLTQDEGPALVPGGRLGDLWDYHQHRYLQGVPEGVRDLPPGVALPLESNLAFMNGVSFTKGCYIGQELTARTHHMGVIRKRLFPVRFLDPLPTSGITPGATVLTASGQTVGKFRAGQGNVGLALLWSEKIKGPLHIRASEGAQVALAASVPDWWPTVSK
partner: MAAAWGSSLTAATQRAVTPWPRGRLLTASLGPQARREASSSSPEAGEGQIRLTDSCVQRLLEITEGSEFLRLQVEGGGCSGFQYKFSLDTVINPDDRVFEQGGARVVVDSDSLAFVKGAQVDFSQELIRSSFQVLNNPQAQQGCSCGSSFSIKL

Variants of B1 are the subject of this experiment. As to conditions: with isca2_human ISCA2, Q86U28.
For the variant R146W, the “effect of a mutation on the interaction” value is “disrupting interaction strength”.
